# Test results reported in IntAct's records for PubMed 12093730.
# B1: Guanine nucleotide exchange factor SopE (Salmonella typhimurium), O52623 (parent)
# chain: MTKITLSPQNFRIQKQETTLLKEKSTEKNSLAKSILAVKNHFIELRSKLSERFISHKNTESSATHFHRGSASEGRAVLTNKVVKDFMLQTLNDIDIRGSASKDPAYASQTREAILSAVYSKNKDQCCNLLISKGINIAPFLQEIGEAAKNAGLPGTTKNDVFTPSGAGANPFITPLISSANSKYPRMFINQHQQASFKIYAEKIIMTEVAPLFNECAMPTPQQFQLILENIANKYIQNTP
# Variants of: B1
# Conditions: with cdc42_human CDC42, P60953
# cdc42_human CDC42, P60953, sequence (P60953 whole entry, looked up): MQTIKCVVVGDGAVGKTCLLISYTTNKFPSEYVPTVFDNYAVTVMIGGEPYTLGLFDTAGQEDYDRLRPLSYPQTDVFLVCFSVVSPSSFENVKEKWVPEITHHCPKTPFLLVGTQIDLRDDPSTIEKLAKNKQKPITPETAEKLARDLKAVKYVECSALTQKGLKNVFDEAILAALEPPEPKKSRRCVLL
row,Variant,effect of a mutation on the interaction
1,MTKITLSPQNFRIQKQETTLLKEKSTEKNSLAKSILAVKNHFIELRSKLSERFISHKNTESSATHFHRGSASEGRAVLTNKVVKDFMLQTLNDIDIRGSASKDPAYASQTREAILSAVYSKNKDQCCNLLISKGINIAPFLQEIGEAAKNAGLPGTTKNDVFTPSGAAANPFITPLISSANSKYPRMFINQHQQASFKIYAEKIIMTEVAPLFNECAMPTPQQFQLILENIANKYIQNTP [G168A],decreasing interaction
